Results: US20230212549A1 (3B PHARMACEUTICALS, published 2023)
Numbered stars: 1 amine (or outer) side, 2 acyl side, 3 side chain; on linkers, the order of the positions; unused ones are H or OH. Bridge positions count the residues as written; N and C are the ends. Square brackets hold non-standard residues; d marks the D form. Primed or numbered codes have the meaning given here. * marks the point of attachment. tMeBn(DOTA-PP) = 1,3,5-trimethylbenzylidene, two thioethers to Cys, third CH2 bound to one N of piperazine whose other N bears DOTA, O=C(O)CN1CCN(CC(=O)O)CCN(CC(=O)N2CCN(Cc3cc(C[*:1])cc(C[*:2])c3)CC2)CCN(CC(=O)O)CC1; Ttds″ = 1,13-diamino-4,7,10-trioxatridecan-succinamic acid spacer, O=C(CCC(=O)[*:2])NCCCOCCOCCOCCCN[*:1]; TBMB(SCH2CH2NH-DOTA) = O=C(O)CN1CCN(CC(=O)O)CCN(CC(=O)NCCSCc2cc(C[*:1])cc(C[*:2])c2)CCN(CC(=O)O)CC1; Ttds = 1,13-diamino-4,7,10-trioxatridecan-succinamic acid, O=C(CCC(=O)[*:2])NCCCOCCOCCOCCCN[*:1]; DOTA = O=C(O)CN1CCN(CC(=O)O)CCN(CC(=O)*)CCN(CC(=O)O)CC1; 3Lut″ = 3,5-lutidylidene (from 3,5-lutidine); mXylylene = c1cc(C[*:1])cc(C[*:2])c1; Pentanesulfonyl = CCCCCS(=O)(=O)*; Nle = CCCC[C@H](N)C(=O)O; 2Lut = 2,6-lutidylidene; Hexanoyl = CCCCCC(=O)*; NH(CH2)5NH2 = NCCCCCN*

B1: Hex-[Cys(tMeBn(InDOTA-AET))-Pro-Pro-Thr-Gln-Phe-AET] (peptide)
peptide: CPPTQFX
modifications: not fully specified; N-term Hex; X7 = AET (2-aminoethanethiol, no carboxyl group); Cys1/AET7 thioether-bridged by tMeBn carrying InDOTA-AET (indium complex)
notes: also called 3BP-3713
B2: Pentyl-SO2-[Cys(3MeBn)-Pro-Pro-Thr-Gln-Phe-Cys]-Asp-NH2 (peptide)
peptide: Pentanesulfonyl-CPPTQFCD-NH2
modifications: linker 1-7 via mXylylene
SMILES: CCCCCS(=O)(=O)N[C@H]1CSCc2cccc(c2)CSC[C@@H](C(=O)N[C@@H](CC(=O)O)C(N)=O)NC(=O)[C@H](Cc2ccccc2)NC(=O)[C@H](CCC(N)=O)NC(=O)[C@H]([C@@H](C)O)NC(=O)[C@@H]2CCCN2C(=O)[C@@H]2CCCN2C1=O
notes: also called 3BP-3514
B3: Hex-[Cys(tMeBn(LuDOTA-PP))-Pro-Pro-Thr-Gln-Phe-Cys]-Asp-NH2 (peptide)
peptide: Hexanoyl-CPPTQFCD-NH2
modifications: linker 1-7 via tMeBn(LuDOTA-PP); also: lutetium complex of DOTA
notes: also called 3BP-3591
B4: Hex-[Cys(tMeBn(DOTA-PP))-Pro-Pro-Thr-Gln-Phe-Cys]-Asp-NH2 (peptide)
peptide: Hexanoyl-CPPTQFCD-NH2
modifications: linker 1-7 via tMeBn(DOTA-PP)
SMILES: CCCCCC(=O)N[C@H]1CSCc2cc(cc(CN3CCN(C(=O)CN4CCN(CC(=O)O)CCN(CC(=O)O)CCN(CC(=O)O)CC4)CC3)c2)CSC[C@@H](C(=O)N[C@@H](CC(=O)O)C(N)=O)NC(=O)[C@H](Cc2ccccc2)NC(=O)[C@H](CCC(N)=O)NC(=O)[C@H]([C@@H](C)O)NC(=O)[C@@H]2CCCN2C(=O)[C@@H]2CCCN2C1=O
B5: Hex-[Cys(tMeBn(DOTA-AET))-Pro-Pro-Thr-Gln-Phe-Cys]-asp-NH2 (peptide)
peptide: CPPTQFCD
modifications: N-term Hex; Cys1/Cys7 thioether-bridged by tMeBn carrying DOTA-AET; D-Asp8; C-term amide
notes: also called 3BP-3681
B6: Hex-[Cys(3MeBn)-Pro-Pro-Thr-Gln-Phe-Cys]-Asp-Ttds-Ape-NH-DOTA′ (peptide)
peptide: Hexanoyl-CPPTQFCD[Ttds″]-{NH(CH2)5NH2-DOTA′}
modifications: linker 1-7 via mXylylene
notes: also called 3BP-3404
B7: Hex-[Cys(tMeBn(InDOTA-PP))-Pro-Pro-Thr-Gln-Phe-Cys]-Asp-NH2 (peptide)
peptide: Hexanoyl-CPPTQFCD-NH2
modifications: linker 1-7 via tMeBn(InDOTA-PP); also: indium complex of DOTA
notes: also called 3BP-3590
B8: DOTA-Ttds-Met-[Cys(3MeBn)-Pro-Pro-Thr-Glu-Phe-Cys]-Asp-His-Phe-Arg-Asp-NH2 (peptide)
peptide: {DOTA}-[Ttds]MCPPTEFCDHFRD-NH2
modifications: linker 3-9 via mXylylene
SMILES: CSCC[C@H](NC(=O)CCC(=O)NCCCOCCOCCOCCCNC(=O)CN1CCN(CC(=O)O)CCN(CC(=O)O)CCN(CC(=O)O)CC1)C(=O)N[C@H]1CSCc2cccc(c2)CSC[C@@H](C(=O)N[C@@H](CC(=O)O)C(=O)N[C@@H](Cc2c[nH]cn2)C(=O)N[C@@H](Cc2ccccc2)C(=O)N[C@@H](CCCNC(=N)N)C(=O)N[C@@H](CC(=O)O)C(N)=O)NC(=O)[C@H](Cc2ccccc2)NC(=O)[C@H](CCC(=O)O)NC(=O)[C@H]([C@@H](C)O)NC(=O)[C@@H]2CCCN2C(=O)[C@@H]2CCCN2C1=O
B9: DOTA-Ttds-Leu-[Cys(3MeBn)-Pro-Pro-Thr-Glu-Phe-Cys]-Asp-His-Phe-Arg-Asp-NH2 (peptide)
peptide: {DOTA}-[Ttds″]LCPPTEFCDHFRD-NH2
modifications: linker 3-9 via mXylylene
SMILES: CC(C)C[C@H](NC(=O)CCC(=O)NCCCOCCOCCOCCCNC(=O)CN1CCN(CC(=O)O)CCN(CC(=O)O)CCN(CC(=O)O)CC1)C(=O)N[C@H]1CSCc2cccc(c2)CSC[C@@H](C(=O)N[C@@H](CC(=O)O)C(=O)N[C@@H](Cc2c[nH]cn2)C(=O)N[C@@H](Cc2ccccc2)C(=O)N[C@@H](CCCNC(=N)N)C(=O)N[C@@H](CC(=O)O)C(N)=O)NC(=O)[C@H](Cc2ccccc2)NC(=O)[C@H](CCC(=O)O)NC(=O)[C@H]([C@@H](C)O)NC(=O)[C@@H]2CCCN2C(=O)[C@@H]2CCCN2C1=O
notes: also called 3BP-3172
B10: Hex-[Cys(tMeBn(EuDOTA-PP))-Pro-Pro-Thr-Gln-Phe-Cys]-Asp-NH2 (peptide)
peptide: Hexanoyl-CPPTQFCD-NH2
modifications: linker 1-7 via tMeBn(EuDOTA-PP); also: europium complex of DOTA
notes: also called 3BP-3661
B11: Pentyl-SO2-[Cys(tMeBn(DOTA-PP))-Pro-Pro-Thr-Gln-Phe-Cys]-Asp-NH2 (peptide)
peptide: Pentanesulfonyl-CPPTQFCD-NH2
modifications: linker 1-7 via tMeBn(DOTA-PP)
SMILES: CCCCCS(=O)(=O)N[C@H]1CSCc2cc(cc(CN3CCN(C(=O)CN4CCN(CC(=O)O)CCN(CC(=O)O)CCN(CC(=O)O)CC4)CC3)c2)CSC[C@@H](C(=O)N[C@@H](CC(=O)O)C(N)=O)NC(=O)[C@H](Cc2ccccc2)NC(=O)[C@H](CCC(N)=O)NC(=O)[C@H]([C@@H](C)O)NC(=O)[C@@H]2CCCN2C(=O)[C@@H]2CCCN2C1=O
notes: also called 3BP-3692
B12: DOTA-Ttds-Nle-[Cys(3MeBn)-Pro-Pro-Thr-Glu-Phe-Cys]-Asp-His-Phe-Arg-Asp-NH2 (peptide)
peptide: {DOTA}-[Ttds][Nle]CPPTEFCDHFRD-NH2
modifications: linker 3-9 via mXylylene
SMILES: CCCC[C@H](NC(=O)CCC(=O)NCCCOCCOCCOCCCNC(=O)CN1CCN(CC(=O)O)CCN(CC(=O)O)CCN(CC(=O)O)CC1)C(=O)N[C@H]1CSCc2cccc(c2)CSC[C@@H](C(=O)N[C@@H](CC(=O)O)C(=O)N[C@@H](Cc2c[nH]cn2)C(=O)N[C@@H](Cc2ccccc2)C(=O)N[C@@H](CCCNC(=N)N)C(=O)N[C@@H](CC(=O)O)C(N)=O)NC(=O)[C@H](Cc2ccccc2)NC(=O)[C@H](CCC(=O)O)NC(=O)[C@H]([C@@H](C)O)NC(=O)[C@@H]2CCCN2C(=O)[C@@H]2CCCN2C1=O
B13: Hex-[Cys(tMeBn(DOTA-AET))-Pro-Pro-Thr-Gln-Phe-Cys]-Gly-OH (peptide)
peptide: Hexanoyl-CPPTQFCG-OH
modifications: linker 1-7 via TBMB(SCH2CH2NH-DOTA)
SMILES: CCCCCC(=O)N[C@H]1CSCc2cc(CSCCNC(=O)CN3CCN(CC(=O)O)CCN(CC(=O)O)CCN(CC(=O)O)CC3)cc(c2)CSC[C@@H](C(=O)NCC(=O)O)NC(=O)[C@H](Cc2ccccc2)NC(=O)[C@H](CCC(N)=O)NC(=O)[C@H]([C@@H](C)O)NC(=O)[C@@H]2CCCN2C(=O)[C@@H]2CCCN2C1=O
notes: also called 3BP-3656
B14: Hex-[Cys(tMeBn(DOTA-AET))-Pro-Pro-Thr-Gln-Phe-Cys]-Ser-OH (peptide)
peptide: Hexanoyl-CPPTQFCS-OH
modifications: linker 1-7 via TBMB(SCH2CH2NH-DOTA)
SMILES: CCCCCC(=O)N[C@H]1CSCc2cc(CSCCNC(=O)CN3CCN(CC(=O)O)CCN(CC(=O)O)CCN(CC(=O)O)CC3)cc(c2)CSC[C@@H](C(=O)N[C@@H](CO)C(=O)O)NC(=O)[C@H](Cc2ccccc2)NC(=O)[C@H](CCC(N)=O)NC(=O)[C@H]([C@@H](C)O)NC(=O)[C@@H]2CCCN2C(=O)[C@@H]2CCCN2C1=O
notes: also called 3BP-3658
B15: Hex-[Cys(tMeBn(DOTA-AET))-Pro-Pro-Thr-Gln-Phe-Cys]-Asp-NH2 (peptide)
peptide: Hexanoyl-CPPTQFCD-NH2
modifications: linker 1-7 via TBMB(SCH2CH2NH-DOTA)
SMILES: CCCCCC(=O)N[C@H]1CSCc2cc(CSCCNC(=O)CN3CCN(CC(=O)O)CCN(CC(=O)O)CCN(CC(=O)O)CC3)cc(c2)CSC[C@@H](C(=O)N[C@@H](CC(=O)O)C(N)=O)NC(=O)[C@H](Cc2ccccc2)NC(=O)[C@H](CCC(N)=O)NC(=O)[C@H]([C@@H](C)O)NC(=O)[C@@H]2CCCN2C(=O)[C@@H]2CCCN2C1=O
notes: also called 3BP-3426
B16: Hex-[Cys(2Lut)-Pro-Pro-Thr-Gln-Phe-Cys]-Asp-NH2 (peptide)
peptide: Hexanoyl-CPPTQFCD-NH2
modifications: linker 1-7 via 2Lut
notes: also called 3BP-3518
B17: Hex-[Cys(3MeBn)-Pro-Pro-Thr-Glu-Phe-Cys]-Asp-His-Phe-Arg-Asp-Ttds-Lys(DOTA)-NH2 (peptide)
peptide: Hexanoyl-CPPTEFCDHFRD[Ttds″]K(DOTA)-NH2
modifications: linker 1-7 via mXylylene
SMILES: CCCCCC(=O)N[C@H]1CSCc2cccc(c2)CSC[C@@H](C(=O)N[C@@H](CC(=O)O)C(=O)N[C@@H](Cc2c[nH]cn2)C(=O)N[C@@H](Cc2ccccc2)C(=O)N[C@@H](CCCNC(=N)N)C(=O)N[C@@H](CC(=O)O)C(=O)NCCCOCCOCCOCCCNC(=O)CCC(=O)N[C@@H](CCCCNC(=O)CN2CCN(CC(=O)O)CCN(CC(=O)O)CCN(CC(=O)O)CC2)C(N)=O)NC(=O)[C@H](Cc2ccccc2)NC(=O)[C@H](CCC(=O)O)NC(=O)[C@H]([C@@H](C)O)NC(=O)[C@@H]2CCCN2C(=O)[C@@H]2CCCN2C1=O
B18: Hex-[Cys(tMeBn(DOTA-AET))-Pro-Pro-Thr-Gln-Phe-Cys]-Asp-OH (peptide)
peptide: Hexanoyl-CPPTQFCD-OH
modifications: linker 1-7 via TBMB(SCH2CH2NH-DOTA)
SMILES: CCCCCC(=O)N[C@H]1CSCc2cc(CSCCNC(=O)CN3CCN(CC(=O)O)CCN(CC(=O)O)CCN(CC(=O)O)CC3)cc(c2)CSC[C@@H](C(=O)N[C@@H](CC(=O)O)C(=O)O)NC(=O)[C@H](Cc2ccccc2)NC(=O)[C@H](CCC(N)=O)NC(=O)[C@H]([C@@H](C)O)NC(=O)[C@@H]2CCCN2C(=O)[C@@H]2CCCN2C1=O
notes: also called 3BP-3665
B19: Hex-[Cys(3Lut)-Pro-Pro-Thr-Gln-Phe-Cys]-Asp-NH2 (peptide)
peptide: Hexanoyl-CPPTQFCD-NH2
modifications: linker 1-7 via 3Lut″
notes: also called 3BP-3519
B20: Hex-[Cys(tMeBn(GaDOTA-PP))-Pro-Pro-Thr-Gln-Phe-Cys]-Asp-NH2 (peptide)
peptide: Hexanoyl-CPPTQFCD-NH2
modifications: linker 1-7 via tMeBn(GaDOTA-PP); also: gallium complex of DOTA
notes: also called 3BP-3592
B21: Hex-[Cys(3MeBn)-Pro-Pro-Thr-Gln-Phe-Cys]-Asp-NH2 (peptide)
peptide: Hexanoyl-CPPTQFCD-NH2
modifications: linker 1-7 via mXylylene
SMILES: CCCCCC(=O)N[C@H]1CSCc2cccc(c2)CSC[C@@H](C(=O)N[C@@H](CC(=O)O)C(N)=O)NC(=O)[C@H](Cc2ccccc2)NC(=O)[C@H](CCC(N)=O)NC(=O)[C@H]([C@@H](C)O)NC(=O)[C@@H]2CCCN2C(=O)[C@@H]2CCCN2C1=O

Biological target: T1, fibroblast activation protein (FAP) on FAP-expressing human WI-38 fibroblasts (human, UniProt Q12884 1-760)
T1 construct: also called human FAP
Assay: competitive FACS, WI-38 cells, vs Cy5 tracer m3; A = pIC50 >8.0

pIC50 Category (FACS) [pIC50]	Binder
> 8	B1
> 8	B2
> 8	B3
> 8	B4
> 8	B5
> 8	B6
> 8	B7
> 8	B8
> 8	B9
> 8	B10
> 8	B11
> 8	B12
> 8	B13
> 8	B14
> 8	B15
> 8	B16
> 8	B17
> 8	B18
> 8	B19
> 8	B20
> 8	B21

Biological target: Recombinant human FAP (R&D systems, #3715-SE) (human, UniProt Q12884 26-760)
Assay: cell-based or functional assay

pIC50 Category (Activity) [pIC50]	Binder
> 8	B1
> 8	B2
> 8	B3
> 8	B4
> 8	B5
> 8	B6
> 8	B7
> 8	B8
> 8	B9
> 8	B10
> 8	B11
> 8	B12
> 8	B13
> 8	B14
> 8	B15
> 8	B16
> 8	B17
> 8	B18
> 8	B19
> 8	B20
> 8	B21
